Values quoted from earlier work as cited in PMC4489983.

Key:
NIPP1 (Homo sapiens) = NIPP1 (Homo sapiens) (UniProt Q12972)
[1] = target: spinophilin (Homo sapiens) (UniProt Q96SB3)
PNUTS (Homo sapiens) = PNUTS (Homo sapiens) (UniProt Q96QC0)
PNUTS (Homo sapiens), sequence (Q96QC0 whole entry): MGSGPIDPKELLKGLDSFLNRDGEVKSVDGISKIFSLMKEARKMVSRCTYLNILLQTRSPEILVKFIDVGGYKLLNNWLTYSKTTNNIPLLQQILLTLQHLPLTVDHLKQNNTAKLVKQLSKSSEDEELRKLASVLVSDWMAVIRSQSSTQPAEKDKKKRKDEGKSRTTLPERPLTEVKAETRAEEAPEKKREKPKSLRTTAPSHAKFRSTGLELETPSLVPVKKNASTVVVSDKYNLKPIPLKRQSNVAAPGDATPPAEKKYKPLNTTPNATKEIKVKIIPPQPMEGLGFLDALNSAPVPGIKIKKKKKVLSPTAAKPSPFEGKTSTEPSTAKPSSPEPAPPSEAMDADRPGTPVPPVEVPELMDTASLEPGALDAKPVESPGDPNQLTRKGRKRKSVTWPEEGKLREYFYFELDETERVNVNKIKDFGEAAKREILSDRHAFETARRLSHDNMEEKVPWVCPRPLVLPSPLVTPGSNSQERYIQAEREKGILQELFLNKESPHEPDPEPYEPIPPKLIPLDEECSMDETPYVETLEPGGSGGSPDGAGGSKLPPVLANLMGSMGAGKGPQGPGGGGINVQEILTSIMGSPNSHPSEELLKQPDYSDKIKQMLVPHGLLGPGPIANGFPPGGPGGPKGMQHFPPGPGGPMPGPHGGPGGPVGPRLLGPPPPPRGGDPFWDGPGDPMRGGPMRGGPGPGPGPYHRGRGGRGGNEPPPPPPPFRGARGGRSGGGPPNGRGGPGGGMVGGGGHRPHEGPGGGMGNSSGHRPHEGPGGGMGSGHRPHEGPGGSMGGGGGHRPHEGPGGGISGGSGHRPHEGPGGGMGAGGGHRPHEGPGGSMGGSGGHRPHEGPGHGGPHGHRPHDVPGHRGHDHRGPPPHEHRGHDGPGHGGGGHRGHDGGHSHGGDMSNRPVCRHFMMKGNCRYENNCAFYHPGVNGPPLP

PP1α, sequence (P62136 2-330): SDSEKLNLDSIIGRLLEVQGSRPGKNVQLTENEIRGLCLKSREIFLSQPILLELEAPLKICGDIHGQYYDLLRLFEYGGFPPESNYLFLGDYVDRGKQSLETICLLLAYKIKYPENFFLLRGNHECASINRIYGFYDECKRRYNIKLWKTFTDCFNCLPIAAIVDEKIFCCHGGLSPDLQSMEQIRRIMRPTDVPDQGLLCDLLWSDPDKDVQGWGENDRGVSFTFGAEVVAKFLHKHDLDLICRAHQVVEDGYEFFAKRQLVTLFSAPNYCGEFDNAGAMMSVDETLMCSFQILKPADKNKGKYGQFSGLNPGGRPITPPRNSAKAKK
NIPP1 (Homo sapiens), sequence (Q12972 whole entry): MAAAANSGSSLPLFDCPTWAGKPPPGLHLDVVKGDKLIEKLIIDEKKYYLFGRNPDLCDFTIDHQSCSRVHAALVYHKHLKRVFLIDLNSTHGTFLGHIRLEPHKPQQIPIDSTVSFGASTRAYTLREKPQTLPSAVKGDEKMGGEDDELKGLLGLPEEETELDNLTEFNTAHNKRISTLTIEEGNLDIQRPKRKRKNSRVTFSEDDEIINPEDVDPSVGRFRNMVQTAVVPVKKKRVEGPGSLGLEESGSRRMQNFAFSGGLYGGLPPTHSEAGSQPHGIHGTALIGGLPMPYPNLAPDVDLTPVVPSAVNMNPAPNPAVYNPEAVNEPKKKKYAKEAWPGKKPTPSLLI
spinophilin (Homo sapiens), sequence (Q96SB3 whole entry): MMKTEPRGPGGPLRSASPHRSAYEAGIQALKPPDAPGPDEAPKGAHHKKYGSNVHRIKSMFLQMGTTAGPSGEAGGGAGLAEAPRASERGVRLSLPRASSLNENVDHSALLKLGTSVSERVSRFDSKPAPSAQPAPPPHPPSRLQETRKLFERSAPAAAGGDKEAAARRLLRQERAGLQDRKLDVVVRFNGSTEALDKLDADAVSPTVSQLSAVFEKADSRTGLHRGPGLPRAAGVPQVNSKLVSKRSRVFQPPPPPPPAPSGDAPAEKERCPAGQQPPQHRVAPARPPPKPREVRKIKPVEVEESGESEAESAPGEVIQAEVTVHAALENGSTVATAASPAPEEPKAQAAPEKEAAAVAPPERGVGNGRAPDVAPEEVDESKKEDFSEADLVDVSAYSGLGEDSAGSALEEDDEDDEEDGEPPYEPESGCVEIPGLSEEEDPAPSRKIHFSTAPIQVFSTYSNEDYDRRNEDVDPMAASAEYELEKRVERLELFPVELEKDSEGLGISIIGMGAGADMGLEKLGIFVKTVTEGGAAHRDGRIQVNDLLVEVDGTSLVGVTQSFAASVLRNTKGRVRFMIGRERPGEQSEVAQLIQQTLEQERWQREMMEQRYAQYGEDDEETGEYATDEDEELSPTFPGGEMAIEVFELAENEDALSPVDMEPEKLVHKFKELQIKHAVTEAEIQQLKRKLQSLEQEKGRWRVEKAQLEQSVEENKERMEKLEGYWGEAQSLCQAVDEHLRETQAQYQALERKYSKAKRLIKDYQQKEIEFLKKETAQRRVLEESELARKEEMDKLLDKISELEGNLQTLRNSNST

- Kd (NIPP1 (Homo sapiens)): 73 nM
- Kd [1]: 9.3 nM
- Kd (PNUTS (Homo sapiens)): 8.7 nM
Substance: PP1α (from UniProt P62136)
